Values quoted from earlier work as cited in patent US6316409A, “Modified ligands of calcium-dependent binding proteins” (Medical Research Council, priority 1996, dated 2001).

Target: T1, barnase (Bacillus amyloliquefaciens, UniProt P00648)
T1 sequence (P00648 48-157): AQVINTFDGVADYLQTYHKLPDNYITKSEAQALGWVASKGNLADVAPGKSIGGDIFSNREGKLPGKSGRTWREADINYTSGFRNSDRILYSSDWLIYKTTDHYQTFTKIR
Settings: cited from earlier work

B1: barstar: physiological inhibitor of barnase (protein, UniProt P11540 2-90, looked up)
Barstar: KKAVINGEQIRSISDLHQTLKKELALPEYYGENLDALWDCLTGWVEYPLVLEWRQFEQSKQLTENGAESVLQVFREAKAEGCDITIILS
- association rate constant: 3.8e+09 M⁻¹ s⁻¹
